Biological target: T1, human CD5 cell differentiation marker (human, UniProt P06127 25-495)
T1 sequence: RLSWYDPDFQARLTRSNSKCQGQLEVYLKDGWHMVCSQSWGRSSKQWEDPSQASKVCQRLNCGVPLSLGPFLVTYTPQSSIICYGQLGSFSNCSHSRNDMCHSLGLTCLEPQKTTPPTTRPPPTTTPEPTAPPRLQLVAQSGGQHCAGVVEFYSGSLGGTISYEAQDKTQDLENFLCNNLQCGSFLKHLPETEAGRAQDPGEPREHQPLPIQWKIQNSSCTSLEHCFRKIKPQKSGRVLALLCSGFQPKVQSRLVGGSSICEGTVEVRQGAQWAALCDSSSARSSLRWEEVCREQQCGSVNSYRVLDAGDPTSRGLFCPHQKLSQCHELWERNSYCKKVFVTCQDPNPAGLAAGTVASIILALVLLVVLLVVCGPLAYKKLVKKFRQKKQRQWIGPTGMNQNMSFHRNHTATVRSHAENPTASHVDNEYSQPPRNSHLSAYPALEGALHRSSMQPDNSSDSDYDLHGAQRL
Test: cell-based or functional assay

B1: he3Fab-rGelA50(C44) (other, not shown: a dimerising Fc or GST)
heavy: EIQLVQSGGGLVKPGGSVRISCAASGYTFTNYGMNWVRQAPGKGLEWMGWINTHTGEPTYADSFKGRFTFSLDDSKNTAYLQINSLRAEDTAVYFCTRRGYDWYFDVWGQGTTVTVSS
light: DIQMTQSPSSLSASVGDRVTITCRASQDINSYLSWFQQKPGKAPKTLIYRANRLESGVPSRFSGSGSGTDYTLTISSLQYEDFGIYYCQQYDESPWTFGGGTKLEIK
chain: GLDTVSFSTKGATYITYVNFLNELRVKLKPEGNSHGIPLLRKKCDDPGKAFVLVALSNDNGQLAEIAIDVTSVYVVGYQVRNRSYFFKDAPDAAYEGLFKNTIKTRLHFGGSYPSLEGEKAYRETTDLGIEPLRIGIKKLDENAIDNYKPTEIASSLLVVIQMVSEAARFTFIENQIRNNFQQRIRPANNTISLENKWGKLSFQIRTSGANGMFSEAVELERANGKKYYVTAVDQVKPKIALLKFVDKDPK
modifications: Cys 44 disulfide-linked through an M2IT linker to the Fab
IC50, whole cell cytotoxicity (inhibition of protein synthesis), CEM cells: 173 pM T | IC50, whole cell cytotoxicity (inhibition of protein synthesis), HSB2 cells: 165 pM T
